The source of these data is EP0866131A2.

The target in the test is human Fas antigen on HPB-ALL cells (human) (UniProt P25445). The test can be described thus: cell-based or functional assay.
UniProt P25445, sequence (P25445 26-335): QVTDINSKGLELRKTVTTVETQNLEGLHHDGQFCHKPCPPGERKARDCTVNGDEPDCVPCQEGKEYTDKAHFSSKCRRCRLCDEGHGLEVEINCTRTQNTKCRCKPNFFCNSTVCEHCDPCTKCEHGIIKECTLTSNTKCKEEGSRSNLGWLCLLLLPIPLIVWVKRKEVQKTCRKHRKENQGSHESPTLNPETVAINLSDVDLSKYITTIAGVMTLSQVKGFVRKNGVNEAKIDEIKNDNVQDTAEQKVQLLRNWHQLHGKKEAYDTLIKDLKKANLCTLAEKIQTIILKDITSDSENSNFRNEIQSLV

In the case of “mouse anti-human Fas monoclonal antibody CH11”, the ED50 (ng/ml), cytotoxic activity on HPB-ALL cells turned out to be 10.7 ng/mL.
